Source: paper PMC5849709, “Structure-based design of chimeric antigens for multivalent protein vaccines” (Nature Communications, 2018)

Legend:
Assay in all cases: SPR
[1] = molecular target: fHbp^V1.1:PorA^117/P1.16 (N. meningitidis) (UniProt Q9JXV4)
[2] = molecular target: fHbp^V1.1:PorA^151/P1.16 (N. meningitidis) (UniProt Q9JXV4)
[3] = molecular target: fHbp^V1.1:PorA^267/P1.16 (N. meningitidis) (UniProt Q9JXV4)
[4] = molecular target: fHbp^V1.1:PorA^294/P1.16 (N. meningitidis)
[5] = molecular target: fHbp^V1.1:PorA^309/P1.16 (N. meningitidis)
[6] = molecular target: T1, factor H binding protein (fHbp) peptide V1.1, N-terminally truncated, soluble (N. meningitidis, UniProt Q9JXV4 25-274); conditions: both partners purified
T1 sequence: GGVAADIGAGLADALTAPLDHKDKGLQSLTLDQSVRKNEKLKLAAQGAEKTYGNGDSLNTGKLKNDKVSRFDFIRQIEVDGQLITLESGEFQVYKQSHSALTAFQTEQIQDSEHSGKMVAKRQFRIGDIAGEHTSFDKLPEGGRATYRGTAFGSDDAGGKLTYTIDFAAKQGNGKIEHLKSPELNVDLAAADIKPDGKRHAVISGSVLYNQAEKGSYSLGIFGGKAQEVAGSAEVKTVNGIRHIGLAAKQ

Molecule: domains 6 and 7 of human complement factor H (CFH6/7) (from UniProt P08603 321-444) (domain or fragment)
- Kd [1]: 2.3 nM
- Kd [2]: 2.3 nM
- Kd [3]: 28 nM
- Kd [4]: 2.7 nM
- Kd [5]: 5.5 nM

B1: domains 6 and 7 of human complement factor H (CFH6/7) (domain or fragment, UniProt P08603 321-444, looked up)
chain: TLKPCDYPDIKHGGLYHENMRRPYFPVAVGKYYSYYCDEHFETPSGSYWDHIHCTQDGWSPAVPCLRKCYFPYLENGYNQNYGRKFVQGKSIDVACHPGYALPKAQTTVTCMENGWSPTPRCIR
- Kd [6]: 3.6 ± 0.4 nM
